Experimental data reported in article PMC12421883.

Target: M. tuberculosis LamA (MmpS3, Rv2198c) fused to a 3X-FLAG tag at the carboxy terminus (M. tuberculosis)
Experiment: SDS-PAGE with western blot

Substance: M. tuberculosis LamA (MmpS3, Rv2198c) fused to a 3X-FLAG tag at the carboxy terminus (natural protein)
- stoichiometry N: 2
